{
  "source": "paper PMC12009342",
  "key": {"[1]": {"molecular_target": "HIV-1 Env antigen (BG505 SOSIP.664 gp140-his) (HIV-1 (BG505)) (UniProt Q2N0S6)", "assay": "SEC-MALS; Fab/antigen mixtures; Fab and HIV Env trimer mixed 3:1, Fab and EGFR or Nkp30 mixed 1:1; Superdex 200 Increase 10/300 GL, PBS with 200 ppm sodium azide, 1 mL/min"}, "[2]": {"molecular_target": "HIV-1 Env antigen (BG505 SOSIP.664 gp140-his) (HIV-1 (BG505)) (UniProt Q2N0S6)", "assay": "BLI; BLItz; His-tagged antigen captured on Anti-Penta-HIS (HIS1K) biosensor at 25 ng/µL for 300 s; Fab in solution at 4 concentrations; association 180 s, dissociation 300 s in PBS"}},
  "data": [
    {"substance": "NC-Cow1 Fab ulCDR-swap variant var1 (ulCDR of NC-Cow2)", "values": [
      {"measurement": "stoichiometry N", "setting": "[1]", "result": 1},
      {"measurement": "Kd", "setting": "[2]", "result": 125, "unit": "nM"}
    ]}
  ]
}
